{"source": "a protein production outcome set (Wang et al. 2014)", "experiment": "label from the status in PepcDB records"}
{"sequence": "MNLTKRITAWFLTLVMVLGLIPQTMFAQEIATSPLQYEATQEMNEDKTEATISIKFTETETIQLEKVTLSDGTEKVEDLSEVTYTVSENGKYDFKVNYVMEGTPQEETISVEVSGLEEKIKELVTNQNIELDVDIQLKGATYFDGHPNPFFGGTKQYMISDRSIIPYNGMQLMELIVEIPYQEGLEIQGITPSAASQYPDLSKVEKDDKNKKWTYSFYFYKNGTYEFTIDYILNGENKITSTSFTVDGLVSIKDIAMRRHLINEYGEFSGFRYQDGQYVTQDILAKEPSVGFFTFGLDGDNGTTAEYTTSLDGLQYLKNATGLYLYDCKKLAEGETIEPVTEGYYPNMKLFRVSNLNERPNMPKSAYNAELVTKSIANMPALTELVINGTGFSDCTVFRKITAGSLDYLQAMANNIVSLDGIESQQNLSSINIGQNKIKSIDPLSKLNQINFLNLMRNEVFDLRPINESLNQKAVAGNTVYGFAAREQNITYDRTVITPLQNGMYTVELPMPIDIDGSLTNTSSVSLKFANGTTKTYSTSQSEGKTYISIPEGDVDSSQENPFEGAEFKFSFNNNNGADPRTKAWFTGTVTFKASPIATNYHVIYDFISGTRGKSLPPEITNLLPIDSTKYYEGDTITAKNPTQLELEVSDGVWTFEGYDADSKTANANSANEDGNIQFTGTWIFETKKYDVSYKFESINTDKEVPKEILDMLPTVGSVEHGKTVNAPETEYKDVKVTDGVWSFKGWTPVKYENVTGNVEFVGKWEFKKNASIINHIPTISASDKTLTVGDTFDPLKDVTARDKEDGDLTKEIEILKNEVNTSKARVYEVTYKVTDSKGASSIKTIYVTVNPKMEELNRIPTISASDKTLTVGDTFDPLKDVTATDKEDGDLTKEIEILKNEVNTSEAGVYEVTYKVTDSKGASSIKTIYVTVNPKMEELNRIPTISASDKTLTVGDTFDSLKDVTATDKEDGDLTKEIEILKNEVNTSKAGVYEVTYKVTDSKGASSIKTIKVTVIEKNIPIIPNEPDKPSKPDTNKPEDNGSVGTGDKTNGVFWTMLSIICGISVIGVYRKKREINQ", "values": [{"measurement": "protein production", "value": "failed"}]}
{"sequence": "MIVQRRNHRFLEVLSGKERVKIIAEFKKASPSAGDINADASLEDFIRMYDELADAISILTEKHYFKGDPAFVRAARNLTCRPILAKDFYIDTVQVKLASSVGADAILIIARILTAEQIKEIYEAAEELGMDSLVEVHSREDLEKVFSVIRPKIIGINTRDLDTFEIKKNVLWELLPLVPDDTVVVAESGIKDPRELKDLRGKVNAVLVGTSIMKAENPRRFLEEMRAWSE", "values": [{"measurement": "protein production", "value": "not failed"}]}
{"sequence": "MTATAQQLEYLKNSIKSIQDYPKPGILFRDVTSLLEDPKAYALSIDLLVERYKNAGITKVVGTEARGFLFGAPVALGLGVGFVPVRKPGKLPRETISETYDLEYGTDQLEIHVDAIKPGDKVLVVDDLLATGGTIEATVKLIRRLGGEVADAAFIINLFDLGGEQRLEKQGITSYSLVPFPGH", "values": [{"measurement": "protein production", "value": "not failed"}]}
{"sequence": "NDNSPRFEKSVYEADLAENSAPGTPILQLRAADLDVGVNGQIEYVFGAATESVRRLLRLDETSGWLSVLHRIDREEVNQLRFTVMARDRGQPPKTDKATVVLNIKDENDNVP", "values": [{"measurement": "protein production", "value": "not failed"}]}
{"sequence": "MDKTQSYDIFLIAPPGLEQVLAEEATACGFDEPRVVPGGVETRGPWSEVMRANLVLRGAGRVLVRIGGFPAVHLAQLDKRARKFAWGDFLRPDRPIRVEAVSRKSKIYHAGAAKQRVERAITEELGAPISDEAEIRLMLRIERDFCTFSIDTSGEALHKRGHKEAVGKAPMRETMAALFLRQCGFDGAEPVLDPMCGSGSFVIEAAEWAAGLMPGRSRSFAFEQLAGFDAAQWQSMRNAAGAGGRPESLYSGSDRNAGAIDASRANATRAGVADFCAFHQRPVSDIRPPEGRPGLVIVNPPYGARIGDQARLRSLYGSLGKVLMDRFSGWRVGLITSEMSLARSTRLPFQAPGPVVDHGGIKVRLYQSVRLR", "values": [{"measurement": "protein production", "value": "failed"}]}
{"sequence": "SIDLRLQYLATRELRNAIAEQDAKAGSLVIMDVKTGEVLAMVNQPTYNPNNRRSMFPAAMRNRAIIDVFEPGSTVKPISMSAALQSGRWKPTDKVEVYPGSLQIGRYTIKDVSRSEGPILDLTGILINSSNVGMSKIAFDIGGEAIYRVMSQVGLGQYTGLGFPGERVGNLPNHREWRKAETATLSYGYGVSVTALQLVHAYAALANDGKMVPLSIIKVDKTPEAVQAIPKEVAETVQGMLQQVIEAPRGVFRAQVPFYHVAGKSGTARKATVGAKGYTENAYRSLFAGFGPMSDPRYAIVVVIDEPRKGGYFGGLVSAPVFSNVMSGTLRLMNVPPDNLPPPAPAPAVPSQVNAAAAKGGRG", "values": [{"measurement": "protein production", "value": "failed"}]}
{"sequence": "MSSSSVEQQVVQHFSHTHPLTKVDEYGEFTCGGCKTYGFGKTYRCAPCDYVLHDHCATCPFTLISFMHPQHELRLFVNGSENMCNICHRLVEGVYYHCETCGFDVHPLCTQHHQHVSYVPHPAHLLELSQCGASNTCMVCRGAILSWRYKCGPCMLDVHVECVNSSAPAATEPQMDLNTSQDPQPYNDECGGIHNYEHTNKGQVSGPSKRRRVFRFFKDVTVEVVSSIITEML", "values": [{"measurement": "protein production", "value": "failed"}]}
{"sequence": "MTKTKFEKVLLIVNPKAGQGDLHTNLTKIVPPLAAAFPDLHILHTKEQGDATKYCQEFASKVDLIIVFGGDGTVFECTNGLAPLEIRPTLAIIPGGTCNDFSRTLGVPQNIAEAAKLITKEHVKPVDVAKANGQHFLNFWGIGLVSEVSNNIDAEEKAKLGKIGYYLSTIRTVKNAETFPVKITYDGQVYEDEAVLVMVGNGEYLGGIPSFIPNVKCDDGTLDIFVVKSTGIQAFKDYIGKKLFEDSNENDIFHVKAKSIHIETEEEKEVDTDGESSLHTPCQIELLQGHFTMIYNPAVV", "values": [{"measurement": "protein production", "value": "not failed"}]}
{"sequence": "MQDGFLTVSIIDATNNRPIQNAVVNIYSMSNGSQSSSTLYQNLRSNESGQVTGLVLPAPDVDYSLQPSDVRPYSQYIVEAIADGYETVVIEGTQLLATIEARQGVPMSPRTRSKRSFSRQSELIFDIGEHTLYGTYPPKIPESNLKPLPPPTGFVVLDNPVVPEFIVVHDGLPEDSSAPNYWIPFKEYIKNIASSEIYSTWPEQTIYANVIAIISFTLNRVFTEWYRNKGYNFTITSTTAYDHKFINNRNLFEPINVVVDAIFNTFIKRPPTSRQPLLAQYCDGQKSQCPDQMTQWGSKDLGDQGYDYESILRYFYGDEIVFERAPIVSGVPVSFPGTTLQVGSSGQYVRTIQNQLNAISNSYPAVPKVIEDGIYGTDTENAVKIFQGIFGLPQSGVVDFKTWYEISRVYVATTRIASLNPLILEHHHHHH", "values": [{"measurement": "protein production", "value": "not failed"}]}
{"sequence": "MSTTALVGTGHRPTIVLVGHGMVGQRFLEALAERGLTATHRVVVLCEEPRPAYDRVQLTSYFSGTTPDELSMTDAEFITEHGIDLRLGDPAETVDREARTVTARSGLVIAYDTLVLATGSYPFVPPVPGKDAEGCFVYRTIEDLLAIEAYAKSRATTGAVVGGGLLGLEAAGALKGLGLTSHIVEFAPRLMPVQVDAGGGAALLRTIEDMGLTVHTGTGTQEIVTGDDGAVTGMKLSDGSELATDLVVFSAGVRPRDQLARDCGLPVGERGGIAVDAQCRTEDPHVFAIGECALAADGRVYGLVAPGYEMAETAAATIASADSSFTGADLSTKLKLLGVDVASFGDAHGATAGCLDVVYADSRSGTYKKLVIGRDGELLGGILVGDADAYGTLRALTGSVPPVSPEQLVLPAGGGGGVALGPSALPDSAVICSCHNVTKGAIRGAVTEHSCTTLPEVKKCTKAGTGCGSCVKVLGQLVNDELTASGVEVDHGLCGCFTQTREELYEIVLALRITSYRSLLDRYGREGARGGDGCEVCKPTVGSIIASLAPTIGANGYVLDGEQSALQDTNDHFLANLQKNGSYSIVPRIPGGEITPEKLIVIGEVARDFGLYTKITGGQRIDLFGARVEQLPLIWTRLVDAGFESGHAYGKSLRTVKSCVGQSWCRYGVQDSVRMAIDLELRYRGLRSPHKLKSAVSGCARECAEAQSKDFGIIATANGWNLYVGGNGGATPRHADLLAQDLSDAELVRLIDRFLMFYIRTADRLERTSVWLERIPGGLDHIRDVVVHDSLGICEELESLMTAHVANYRDEWTETINDPEKLARFVSFVNAPDTPDPVVGFVPERDQIKPDLPLLTIGHRPLEGSAQR", "values": [{"measurement": "protein production", "value": "failed"}]}
{"sequence": "MNQEFFMLSQAMVEHLNEQINLEFFSSNLYLQMSAWCEDKGFDGAAEFLRAHAVEEMQHMQRLFTYVSETGALPILGAIAAPRHDFASLGEVFRETYQHEQKITQQINKLAHVAFTSQDYSTFNFLQWYVAEQHEEEKLFKGILDKLELVGEDGKALFFIDKDLAALAKKGSSSVMDAPAE", "values": [{"measurement": "protein production", "value": "not failed"}]}
{"sequence": "SAPFDVIGPQEPILAVVGEDAELPCRLSPNVSAKGMELRWFREKVSPAVFVSREGQEQEGEEMAEYRGRVSLVEDHIAEGSVAVRIQEVKASDDGEYRCFFRQDENYEEAIVHLKVAA", "values": [{"measurement": "protein production", "value": "failed"}]}
{"sequence": "MIYQPDENRYHTMEYRRCGRSGVKLPAISLGLWHNFGDTTRVENSRALLQRAFDLGITHFDLANNYGPPPGSAECNFGRILQEDFLPWRDELIISTKAGYTMWDGPYGDWGSRKYLIASLDQSLKRMGLEYVDIFYHHRPDPETPLKETMKALDHLVRHGKALYVGISNYPADLARQAIDILEDLGTPCLIHQPKYSLFERWVEDGLLALLQEKGVGSIAFSPLAGGQLTDRYLNGIPEDSRAASGSRFLKPEQITADKLEKVRRLNELAARRGQKLSQMALAWVLRNDNVTSVLIGASKPSQIEDAVGMLANRRFSAAECAEIDAILEGRF", "values": [{"measurement": "protein production", "value": "failed"}]}
{"sequence": "HARKSLTVLVVGESARAENFGILGYGRNTTPNLNKENGLVAFTDVYSCGTETAVSVPCMFSNMGRKNYNATKARNQEGLLDVLKHAGIEVAWRDNQSGCKGTCDRVTFQDVSNLTDPLLCNSHECRDEILLQNLQGFIDSLDKDTVLVLHQMGSHGPEYYKRYPKEFEKFTPVCESNALNNCSRDSIVNAYDNTLLYTDHVLSTLIDLLRSNQAKVDTAMVYLSDHGESLGEYNLFLHGTPYVLAPDQQKHVPMLIWLSDTYQKSFAVTPDCLAKQRNAPLSQDNLFHSMLGLLKVDTKVY", "values": [{"measurement": "protein production", "value": "failed"}]}
{"sequence": "MARGDEGGENMIKIYTLGGYEEVGKNMTAVEYEGEVVIIDMGIRLDRVLIHEDVEFQKMSSKDLRKLGAIPDDRPIRDKKVVAIALSHGHLDHIGAVGKLAPHYPDVPIYGTPYTIRLAKSEIKGEEYFEVTNPLYETNYGEIVQVSENLAIEFVQVTHSIPHSSIVVIHTPEGAVVYACDYKFDNNHPYGEKPDYKRLKELGKEGVKVLIAESTRVAEETKTPSEAVAKMLLEDFFLYEGMEADGLIATTFASHIARLQELIEIANKMGRQAIFIGRSLAKYTGIAKQLGLIKMKGSRVLRSPNAVSKVLKEVSQARENYLLIVTGHQGEPGAILTRMANGELYDIGPRDTVVFSAGVIPNPLNIAQRYALETKLKMRGVRMIKDLHVSGHASKEDHRYLIRMLNPEYIVPAHGEFRMLTHYAELAEEEGYRIGKDVFISRNGHIVEII", "values": [{"measurement": "protein production", "value": "failed"}]}
{"sequence": "MALIEGFRVRNYRALRDITLGRLSAEQQGDPLTPFTVVIGKNGVGKSTLFDAFGFVADCLSKDVESACDDKQRGGFERMRSLGTEESIRFDIYYREAKGERPITYELAINLDSSGRPFVESEVLKQRRKGQKHGRPYPFLRLHHGVGKVWAGEEAVETSSGEEDRAQEDVELTDLRQLGIATLGTLKEHPRIKRFRDFLKGWHLSYFHPDSARSIPSAGAQRHLDVHGENIGNVVQYMEREHKERFKTILDRIAAKIPGVHSIRTTVTQDKRVLLQFNDGAFNDPFYAGQMSDGTLKIFAYLLLMEDPEPPPFICIEEPENGLYHRLLDSLASELRSHATGKKNAPQIFVTTHQPYFVDALSTKEVWILEKGKNGFSTICRASDIDLVRNLVEEGLPLGGLWYGDYLDTK", "values": [{"measurement": "protein production", "value": "failed"}]}
